Test results from article PMC4301919, “Helical Defects in MicroRNA Influence Protein Binding by TAR RNA Binding Protein”.
Substitutions are numbered along the chain they refer to.

What was measured:
TRBP-ΔC [1] = target: T1, TRBP-ΔC (UniProt Q15633-2 9-215); test: EMSA; apparent Kd; nH 1.9; 50 mM sodium cacodylate pH 7.0, 50 mM potassium glutamate, 5% glycerol; EMSA 0.5 pM RNA, 30 min at room temperature, gel 0.25X TBE at 10 C; CD at 10 C with 5-15 uM RNA; details: protein: recombinant; label: 5'-32P top strand (EMSA); blunt
T1 sequence: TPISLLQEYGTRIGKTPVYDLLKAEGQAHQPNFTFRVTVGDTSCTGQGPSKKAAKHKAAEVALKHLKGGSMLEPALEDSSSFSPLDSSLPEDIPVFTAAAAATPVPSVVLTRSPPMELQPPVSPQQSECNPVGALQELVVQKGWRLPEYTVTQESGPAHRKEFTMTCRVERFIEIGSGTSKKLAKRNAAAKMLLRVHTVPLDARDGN

TRBP-ΔC [2] = target: T1, TRBP-ΔC; test: EMSA; apparent Kd; nH 2.5; 50 mM sodium cacodylate pH 7.0, 50 mM potassium glutamate, 5% glycerol; EMSA 0.5 pM RNA, 30 min at room temperature, gel 0.25X TBE at 10 C; CD at 10 C with 5-15 uM RNA; details: protein: recombinant; label: 5'-32P; hairpin, 16 bp stem, U8 loop
TRBP-dsRBD2 [3] = target: T2, TRBP-dsRBD2 (UniProt Q15633-2 139-215); test: EMSA; apparent Kd; nH >2; text says bound; 50 mM sodium cacodylate pH 7.0, 50 mM potassium glutamate, 5% glycerol; EMSA 0.5 pM RNA, 30 min at room temperature, gel 0.25X TBE at 10 C; CD at 10 C with 5-15 uM RNA; details: protein: recombinant, label: 5'-32P, hairpin, 16 bp stem
T2 sequence: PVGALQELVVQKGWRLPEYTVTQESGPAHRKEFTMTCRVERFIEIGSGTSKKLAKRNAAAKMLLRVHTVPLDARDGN

TRBP-dsRBD1 [4] = target: T3, TRBP-dsRBD1 (UniProt Q15633-2 9-85); test: EMSA; apparent Kd; nH 1.3; 50 mM sodium cacodylate pH 7.0, 50 mM potassium glutamate, 5% glycerol; EMSA 0.5 pM RNA, 30 min at room temperature, gel 0.25X TBE at 10 C; CD at 10 C with 5-15 uM RNA; details: protein: recombinant, label: 5'-32P, hairpin, 16 bp stem
T3 sequence: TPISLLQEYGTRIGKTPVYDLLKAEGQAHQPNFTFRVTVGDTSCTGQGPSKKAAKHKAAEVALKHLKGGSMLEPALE

TRBP-ΔC [5] = target: T1, TRBP-ΔC; test: EMSA; apparent Kd; nH 1.1; text gives error 0.1; 50 mM sodium cacodylate pH 7.0, 50 mM potassium glutamate, 5% glycerol; EMSA 0.5 pM RNA, 30 min at room temperature, gel 0.25X TBE at 10 C; CD at 10 C with 5-15 uM RNA; details: protein: recombinant; label: 5'-32P top strand; imperfect duplex with U-bulge and A-A mismatch
TRBP-ΔC [6] = target: T1, TRBP-ΔC; test: EMSA; apparent Kd; nH 1.6; 50 mM sodium cacodylate pH 7.0, 50 mM potassium glutamate, 5% glycerol; EMSA 0.5 pM RNA, 30 min at room temperature, gel 0.25X TBE at 10 C; CD at 10 C with 5-15 uM RNA; details: protein: recombinant; label: 5'-32P; hairpin with 1-nt U-bulge and A-A mismatch
TRBP-ΔC [7] = target: T1, TRBP-ΔC; test: EMSA; apparent Kd; nH 3.1; 50 mM sodium cacodylate pH 7.0, 50 mM potassium glutamate, 5% glycerol; EMSA 0.5 pM RNA, 30 min at room temperature, gel 0.25X TBE at 10 C; CD at 10 C with 5-15 uM RNA; details: protein: recombinant; label: 5'-32P; hairpin, 16 bp stem, U6 loop
TRBP-dsRBD1 [8] = target: T3, TRBP-dsRBD1; test: EMSA; apparent Kd; nH 1.0; 50 mM sodium cacodylate pH 7.0, 50 mM potassium glutamate, 5% glycerol; EMSA 0.5 pM RNA, 30 min at room temperature, gel 0.25X TBE at 10 C; CD at 10 C with 5-15 uM RNA; details: protein: recombinant, label: 5'-32P, hairpin, 16 bp stem
TRBP-ΔC [9] = target: T1, TRBP-ΔC; test: EMSA; apparent Kd; nH 4; 50 mM sodium cacodylate pH 7.0, 50 mM potassium glutamate, 5% glycerol; EMSA 0.5 pM RNA, 30 min at room temperature, gel 0.25X TBE at 10 C; CD at 10 C with 5-15 uM RNA; details: protein: recombinant; label: 5'-32P top strand (EMSA); blunt
TRBP-dsRBD2 [10] = target: T2, TRBP-dsRBD2; test: EMSA; apparent Kd; nH 2.7; 50 mM sodium cacodylate pH 7.0, 50 mM potassium glutamate, 5% glycerol; EMSA 0.5 pM RNA, 30 min at room temperature, gel 0.25X TBE at 10 C; CD at 10 C with 5-15 uM RNA; details: protein: recombinant
TRBP-dsRBD1 [11] = target: T3, TRBP-dsRBD1; test: EMSA; apparent Kd; nH 1.5; 50 mM sodium cacodylate pH 7.0, 50 mM potassium glutamate, 5% glycerol; EMSA 0.5 pM RNA, 30 min at room temperature, gel 0.25X TBE at 10 C; CD at 10 C with 5-15 uM RNA; details: protein: recombinant; label: 5'-32P top strand (EMSA); blunt
TRBP-dsRBD2 [12] = target: T2, TRBP-dsRBD2; test: EMSA; apparent Kd; nH 4.3; 50 mM sodium cacodylate pH 7.0, 50 mM potassium glutamate, 5% glycerol; EMSA 0.5 pM RNA, 30 min at room temperature, gel 0.25X TBE at 10 C; CD at 10 C with 5-15 uM RNA; details: protein: recombinant; label: 5'-32P top strand (EMSA); blunt
TRBP-ΔC [13] = target: T1, TRBP-ΔC; test: EMSA; apparent Kd; nH >14; 50 mM sodium cacodylate pH 7.0, 50 mM potassium glutamate, 5% glycerol; EMSA 0.5 pM RNA, 30 min at room temperature, gel 0.25X TBE at 10 C; CD at 10 C with 5-15 uM RNA; details: protein: recombinant; label: 5'-32P top strand (EMSA); blunt
TRBP-dsRBD1 [14] = target: T3, TRBP-dsRBD1; test: EMSA; apparent Kd; nH 2.6; 50 mM sodium cacodylate pH 7.0, 50 mM potassium glutamate, 5% glycerol; EMSA 0.5 pM RNA, 30 min at room temperature, gel 0.25X TBE at 10 C; CD at 10 C with 5-15 uM RNA; details: protein: recombinant; label: 5'-32P top strand (EMSA); blunt
TRBP-ΔC [15] = target: T1, TRBP-ΔC; test: EMSA; apparent Kd; nH 2.7; 50 mM sodium cacodylate pH 7.0, 50 mM potassium glutamate, 5% glycerol; EMSA 0.5 pM RNA, 30 min at room temperature, gel 0.25X TBE at 10 C; CD at 10 C with 5-15 uM RNA; details: protein: recombinant; label: 5'-32P top strand; duplex with 1x1 A-A mismatch
TRBP-ΔC [16] = target: T1, TRBP-ΔC; test: EMSA; apparent Kd; nH 5; 50 mM sodium cacodylate pH 7.0, 50 mM potassium glutamate, 5% glycerol; EMSA 0.5 pM RNA, 30 min at room temperature, gel 0.25X TBE at 10 C; CD at 10 C with 5-15 uM RNA; details: protein: recombinant; label: 5'-32P top strand; duplex with 1-nt U-bulge
TRBP-dsRBD2 [17] = target: T2, TRBP-dsRBD2; test: EMSA; apparent Kd; nH 2.4; 50 mM sodium cacodylate pH 7.0, 50 mM potassium glutamate, 5% glycerol; EMSA 0.5 pM RNA, 30 min at room temperature, gel 0.25X TBE at 10 C; CD at 10 C with 5-15 uM RNA; details: protein: recombinant; label: 5'-32P; hairpin, 16 bp stem, UUCG loop
TRBP-ΔC [18] = target: T1, TRBP-ΔC; test: EMSA; apparent Kd; nH 1.1; 50 mM sodium cacodylate pH 7.0, 50 mM potassium glutamate, 5% glycerol; EMSA 0.5 pM RNA, 30 min at room temperature, gel 0.25X TBE at 10 C; CD at 10 C with 5-15 uM RNA; details: protein: recombinant; label: 5'-32P; hairpin, 16 bp stem, UUCG loop
TRBP-ΔC [19] = target: T1, TRBP-ΔC; test: EMSA; apparent Kd; nH 4.1; 50 mM sodium cacodylate pH 7.0, 50 mM potassium glutamate, 5% glycerol; EMSA 0.5 pM RNA, 30 min at room temperature, gel 0.25X TBE at 10 C; CD at 10 C with 5-15 uM RNA; details: protein: recombinant; label: 5'-32P; hairpin, 16 bp stem, U4 loop
TRBP-ΔC [20] = target: T1, TRBP-ΔC; test: EMSA; apparent Kd; nH 3.2 (1.4 in loop section); 50 mM sodium cacodylate pH 7.0, 50 mM potassium glutamate, 5% glycerol; EMSA 0.5 pM RNA, 30 min at room temperature, gel 0.25X TBE at 10 C; CD at 10 C with 5-15 uM RNA; details: protein: recombinant; label: 5'-32P top strand (EMSA); blunt
TRBP-ΔC [21] = target: T1, TRBP-ΔC; test: EMSA; apparent Kd; nH >12; 50 mM sodium cacodylate pH 7.0, 50 mM potassium glutamate, 5% glycerol; EMSA 0.5 pM RNA, 30 min at room temperature, gel 0.25X TBE at 10 C; CD at 10 C with 5-15 uM RNA; details: protein: recombinant; label: 5'-32P top strand (EMSA); blunt
TRBP-dsRBD1 [22] = target: T3, TRBP-dsRBD1; test: EMSA; apparent Kd; nH 2.9; 50 mM sodium cacodylate pH 7.0, 50 mM potassium glutamate, 5% glycerol; EMSA 0.5 pM RNA, 30 min at room temperature, gel 0.25X TBE at 10 C; CD at 10 C with 5-15 uM RNA; details: protein: recombinant; label: 5'-32P top strand (EMSA); blunt
TRBP-dsRBD2 [23] = target: T2, TRBP-dsRBD2; test: EMSA; apparent Kd; nH 3.1; 50 mM sodium cacodylate pH 7.0, 50 mM potassium glutamate, 5% glycerol; EMSA 0.5 pM RNA, 30 min at room temperature, gel 0.25X TBE at 10 C; CD at 10 C with 5-15 uM RNA; details: protein: recombinant; label: 5'-32P top strand (EMSA); blunt

B1: ds12 (dsRNA)
RNA 1: GUCAGCAGUGCC
RNA 2: GGCACUGCUGAC
Binder B1 has a Kd (TRBP-ΔC [1]) of 2000 ± 300 nM.

B2: ds16-octa-U (structured_RNA)
RNA: GUCAGCAGUGCCUUAGUUUUUUUUCUAAGGCACUGCUGAC
B2 gave a Kd (TRBP-ΔC [2]) of 410 ± 50 nM, a Kd (TRBP-dsRBD2 [3]; U8 loop) of over 6 µM and a Kd (TRBP-dsRBD1 [4]; U8 loop) of 8 ± 3 µM.

B3: miR-16-1/miR-16-1* (dsRNA)
RNA 1: UAGCAGCACGUAAAUAUUGGCG
RNA 2: CCAGUAUUAACUGUGCUGCUGAA
B3 was tested, and the Kd (TRBP-ΔC [5]) was 1100 ± 10 nM.

B4: pre-mir-16-1 (structured_RNA)
RNA: UAGCAGCACGUAAAUAUUGGCGUUAAGAUUCUAAAAUUAUCUCCAGUAUUAACUGUGCUGCUGAA
B4 was tested, and the Kd (TRBP-ΔC [6]) was 610 ± 20 nM.

B5: ds16-hexa-U (structured_RNA)
RNA: GUCAGCAGUGCCUUAGUUUUUUCUAAGGCACUGCUGAC
B5 showed a Kd (TRBP-dsRBD2 [3]; U6 loop) of over 4 µM, a Kd (TRBP-ΔC [7]) of 610 ± 50 nM and a Kd (TRBP-dsRBD1 [8]; U6 loop) of 10 ± 3 µM.

B6: ds22 (dsRNA)
RNA 1: GUCAGCAGUGCCUUAGCAGCAC
RNA 2: GUGCUGCUAAGGCACUGCUGAC
B6 gave a Kd (TRBP-ΔC [9]) of 600 ± 50 nM, a Kd (TRBP-dsRBD2 [10]; label: 5'-32P top strand (EMSA), blunt) of 1700 ± 100 nM and a Kd (TRBP-dsRBD1 [11]) of 3.5 ± 0.2 µM.

B7: ds44 (dsRNA)
RNA 1: GGUCAGCAGUGCCUUAGCAGCACGUAAAUAUUGGCGUUAAGACC
RNA 2: GGUCUUAACGCCAAUAUUUACGUGCUGCUAAGGCACUGCUGACC
B7 was tested, and the Kd (TRBP-dsRBD2 [12]) was 800 ± 60 nM, the Kd (TRBP-ΔC [13]) was 60 ± 10 nM and the Kd (TRBP-dsRBD1 [14]) was 800 ± 50 nM.

B8: A-mismatch (dsRNA)
RNA 1: GGUCAGCACGUAAAUAUUGUCC
RNA 2: GGACAGUAUUAACGUGCUGUAC
B8 gave a Kd (TRBP-ΔC [15]) of 1780 ± 80 nM.

B9: U-bulge (dsRNA)
RNA 1: GGUCAGCACGUAAAUAUUGUCC
RNA 2: GGACAGUAUUUACUGUGCUGAUC
Binder B9 has a Kd (TRBP-ΔC [16]) of 300 ± 30 nM.

B10: ds16-tetra-stable (structured_RNA)
RNA: GUCAGCAGUGCCUUAGUUCGCUAAGGCACUGCUGAC
B10 was tested, and the Kd (TRBP-dsRBD2 [17]) was 5 ± 0.7 µM, the Kd (TRBP-dsRBD1 [4]; UUCG loop) was 9 ± 1 µM and the Kd (TRBP-ΔC [18]) was 500 ± 50 nM.

B11: ds16-tetra-U (structured_RNA)
RNA: B10 RNA with C19U, G20U
B11 showed a Kd (TRBP-dsRBD2 [10]; label: 5'-32P, hairpin, 16 bp stem, U4 loop) of 4000 ± 900 nM, a Kd (TRBP-ΔC [19]) of 700 ± 50 nM and a Kd (TRBP-dsRBD1 [8]; U4 loop) of 7 ± 0.9 µM.

B12: ds16 (dsRNA)
RNA 1: GUCAGCAGUGCCUUAG
RNA 2: CUAAGGCACUGCUGAC
With B12 the Kd (TRBP-ΔC [20]) was 800 ± 70 nM.

B13: ds33 (dsRNA)
RNA 1: GGUCAGCAGUGCCUUAGCAGCACGUAAAUAUGG
RNA 2: CCAUAUUUACGUGCUGCUAAGGCACUGCUGACC
B13 showed a Kd (TRBP-ΔC [21]) of 200 ± 20 nM, a Kd (TRBP-dsRBD1 [22]) of 900 ± 300 nM and a Kd (TRBP-dsRBD2 [23]) of 1000 ± 80 nM.
